Assay results from patent US20210122805A1 (Bristol-Myers Squibb, published 2021).
Changes are numbered by the printed parent chain. Values belong to the molecule of their own block, whether it stands above or below them.

Experiments:
[1] = molecular target: VEGFR2 fusion protein (extracellular domain of hVEGFR2 and intracellular domain of hEpoR) on Ba/F3 cells (human) (UniProt P35968); assay: cell-based or functional assay
human PCSK9 [2] = molecular target: T1, human PCSK9 (human, UniProt Q8NBP7 31-692); assay: PCSK9:ATI-972 FRET competition assay, 5 nM human PCSK9; competitor biotinylated ATI-972
T1 construct: also called hPCSK9; recombinant human PCSK9
Excerpt: (§1) Two fluorescence resonance energy transfer (FRET) based assays were used to determine the competitive binding potency of PRD460 and other adnectins to hPCSK9. The PCSK9:EGFA FRET assay measures the binding of PCSK9 to the LDLR, using a soluble epidermal growth factor precursor homology domain-A (EGFA) peptide and recombinant human PCSK9.

human PCSK9 [3] = molecular target: T1, human PCSK9; assay: cell-based or functional assay
human PCSK9 [4] = molecular target: T1, human PCSK9; assay: SPR (Biacore), 10Fn3 protein or Fc fusion captured by anti-His or anti-human antibody, target in flow, 25 C, 1:1 fit
Method: (§2) The binding properties of Fc-¹⁰Fn3 fusion proteins and non-Fc ¹⁰Fn3 proteins were characterized by Surface Plasmon Resonance (SPR). Anti-human or anti-Histidine antibody was immobilized on a Biacore chip, and ¹⁰ Fn3 proteins and Fc-¹⁰Fn3 fusions were captured on the chip surface. Varying concentrations of target were placed into the flow solution using MgCl2 (3 M) for chip regeneration between cycles. Kinetic determinations were performed at 25° C. Evaluation of the kinetic parameters was performed using the 1:1 binding algorithm on the Biacore Evaluation software.

human PCSK9 [5] = molecular target: T1, human PCSK9; assay: PCSK9:EGFA FRET competition assay, 5 nM PCSK9; competitor EGFA peptide
Excerpt: as §1

human PCSK9 [6] = molecular target: T1, human PCSK9; assay: SPR (Biacore), ATI-1081 captured by anti-His antibody, hPCSK9 in flow, 25 C, 1:1 fit
Method: The binding characteristics were characterized by Surface Plasmon Resonance (SPR). […] Varying concentrations of hPCSK9 were placed into the flow solution using MgCl2 (3 M) for chip regeneration between cycles. […] Duplicate experiments for PRD460 were performed on different days. Kinetic determinations were performed at 25° C. Evaluation of the kinetic parameters was performed using the 1:1 Binding algorithm on the Biacore Evaluation software.

VEGFR2 = VEGFR2 (Homo sapiens (Human), UniProt P35968 20-764); assay: SPR (Biacore), 10Fn3 protein or Fc fusion captured by anti-His or anti-human antibody, target in flow, 25 C, 1:1 fit
Method: as §2

human PCSK9 [7] = molecular target: T1, human PCSK9; assay: PCSK9:ATI-972 FRET assay, 5 nM human PCSK9; displaced competitor: biotinylated ATI-972

B2: 1784F03 (designed binder, from a related filing)
chain: MGVSDVPRDLEVVAATPTSLLISWRPPIHAYGYYRITYGETGGNSPVQEFTVPIVEGTATISGLKPGVDYTITVYAVEYTFKHSGYYHRPISINYRTEIDKPSQHHHHHH
IC50, HepG2 depletion inhibition (human PCSK9 [3]): 13.2 nM | Kd (human PCSK9 [4]): 34.5 nM | koff (human PCSK9 [4]): 0.000396 s⁻¹ | kon (human PCSK9 [4]): 11500 M⁻¹ s⁻¹

B3: 1813E02 (designed binder, from a related filing)
chain: B2 chain with R25S, I28A, H29N, A30G, I54V, V55G, E56R, F81Y, H83G
IC50, HepG2 depletion inhibition (human PCSK9 [3]): 10.6 nM | Kd (human PCSK9 [4]): 22.2 nM | koff (human PCSK9 [4]): 0.000388 s⁻¹ | kon (human PCSK9 [4]): 17500 M⁻¹ s⁻¹

B5: C7FL (designed binder)
chain: VSDVPRDLEVVAATPTSLLISWRHPHFPTRYYRITYGETGGNSPVQEFTVPLQPPTATISGLKPGVDYTITVYAVTDGRNGRLLSIPISINYRT
notes: No Fc; anti-VEGFR2 10Fn3; not shown: the N-terminal extension, C-terminal tail and His tag of the non-Fc C7FL protein, none of which is stated for it
Kd (VEGFR2): 11.5 nM | koff (VEGFR2): 0.000236 s⁻¹ | kon (VEGFR2): 20500 M⁻¹ s⁻¹

Now from value to molecule:

IC50 (nM), Ba/F3 proliferation assay [1]: 7.96 nM | Relative Potency, Ba/F3 proliferation assay [1]: 1
Molecule: CT322 (designed binder)

EC50 (human PCSK9 [2]): 0.8 nM
B1: ATI-1114 (designed binder)
chain: MGVSDVPRDLEVVAATPTSLLISWVPPSDDYGYYRITYGETGGNSPVQEFTVPIGKGTATISGLKPGVDYTITVYAVEFPWPHAGYYHRPISINYRTGSGCHHHHHH
modifications: pegylated (site and PEG size not stated)

EC50 of inhibition of PCSK9-induced LDLR depletion from HepG2 cell surface (FACS) (human PCSK9 [3]): 9 nM | EC50 (human PCSK9 [5]): 3.7 nM | EC50 (human PCSK9 [2]): 2.8 nM | Kd (human PCSK9 [6]): 6.7 nM | koff (human PCSK9 [6]): 0.000245 s⁻¹ | kon (human PCSK9 [6]): 36500 M⁻¹ s⁻¹ | Kd (human PCSK9 [4]): 6.7 nM | koff (human PCSK9 [4]): 0.000245 s⁻¹ | kon (human PCSK9 [4]): 36500 M⁻¹ s⁻¹
B4: ATI-1081 (designed binder)
chain: MGVSDVPRDLEVVAATPTSLLISWVPPSDDYGYYRITYGETGGNSPVQEFTVPIGKGTATISGLKPGVDYTITVYAVEFPWPHAGYYHRPISINYRTEIDKPSQHHHHHH
notes: No Fc

EC50 of inhibition of PCSK9-AF647 intracellular fluorescence in HepG2 cells (human PCSK9 [3]): 10 nM | EC50 of inhibition of PCSK9-induced LDLR depletion from HepG2 cell surface (FACS) (human PCSK9 [3]): 8 nM | EC50 (human PCSK9 [5]): 1.9 nM | IC50 (read off the curve) (human PCSK9 [7]): ~0.9 nM
B6: ATI-1174 (designed binder)
chain: MGVSDVPRDLEVVAATPTSLLISWVPPSDDYGYYRITYGETGGNSPVQEFTVPIGKGTATISGLKPGVDYTITVYAVEFPWPHAGYYHRPISINYRTEIEKPCQ
modifications: pegylated (site and PEG size not stated)
notes: also called pegylated anti-PCSK9 Adnectin
